Experiments:
[1] = biological target: 表达于CHOK1细胞表面的人TIGIT (CHOK1/人TIGIT细胞, 吉满生物 GM-C01116) (human) (UniProt Q495A1); experiment: flow cytometry competition, inhibition of Biotinylated-CD155 (0.6μg/ml) binding to CHOK1/human TIGIT cells
[2] = biological target: 表达于CHOK1细胞表面的人TIGIT (CHOK1/人TIGIT细胞, 吉满生物 GM-C01116) (human) (UniProt Q495A1); experiment: flow cytometry competition, inhibition of Biotinylated-CD155 (0.6μg/ml) binding to CHOK1/hTIGIT cells
[3] = biological target: 表达于CHOK1细胞表面的人TIGIT (CHOK1/人TIGIT细胞, 吉满生物 GM-C01116) (human) (UniProt Q495A1); experiment: flow cytometry on CHOK1/hTIGIT cells
[4] = biological target: Jurkat-hTIGIT-NFAT-CD226细胞上过表达的人TIGIT (human); experiment: cell-based or functional assay

Chain of UniProt Q495A1 (Q495A1 22-244, one chain of several): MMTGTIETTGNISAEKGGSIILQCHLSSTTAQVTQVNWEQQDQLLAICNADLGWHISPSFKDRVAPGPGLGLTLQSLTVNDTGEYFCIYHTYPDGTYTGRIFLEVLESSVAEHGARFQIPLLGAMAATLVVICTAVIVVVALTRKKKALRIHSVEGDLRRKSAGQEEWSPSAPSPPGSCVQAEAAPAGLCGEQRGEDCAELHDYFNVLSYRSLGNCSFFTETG

## IgG对照 (antibody)
[1]
  最大抑制: 3.03%
[2]
  最大抑制: 6.36%
[3]
  最大MFI: 229 MFI
[4]
  Max RLU: 7110 RLU
  最大RLU: 6320 RLU

From patent CN114907476A
